B1: Antibody 15A6 (antibody, V domains shown)
VH: EVKLVESGGDLVKPGGSLKLSCAASGFTFSTYGMSWVRQTPEKRLEWVATISGSNSYTYYPDSVKGRFTISRDNAKNNLYLQMSSLRSEDTALYYCTRHENGYYFYAMDYWGQGTSVTVSS
VL: DVQITQSPSYLTASPGETITINCRSSKSITKYLAWYQEKPGKTNKLLIYSGSTLQSGIPSRFSGSGSGTDFTLTISSLEPEDFAMYYCQQHSEYPWTFGGGTRLEIK
notes: Mouse hybridoma mAb purified from ascites
B2: Antibody 7C12 (antibody, V domains shown)
VH: EVQLQQSGPDLVKPGASVKISCKASGYIFTDFNMHWVKQSHGKSLEWIGYIYPFNGGTGYNQKFENMATLTVDISSSTAYMEVRSLTSEDSAVYYCARRGGRGHFDYWGQGTTLTVSS
VL: DIQMTQSPASLSASVGETVTVTCRASGNIHNYLAWYQQKQGKSPQLLVYNAKTLADGVPSRFSGSGSGIQFSLKINSLQPEDFGSYYCQHFWNTPFTFGSGTKLEIK
notes: as for B1
B3: Antibody 8A4 (antibody, V domains shown)
VH: QVQLKESGPGLVAPSQSLSITCTVSGFSLTDYGVNWVRQPPGKGLEWLGMIWGDGNTDYNSALKSRLSISKVNSKSQVFLKMNSLQTDDTARYYCARSSYRYDENIYYYAMDYWGQGTSVTVSS
VL: DIVMTQSPSSLTVTAGEEVTLSCKSSQSLLNSGIQKNYLTWYQQKPGQPPKLLIYWASTRESGVPDRFTGSVSGTDFTLTISSVQAEDLAVYYCQNDYSLPFTFGSGTKLEIK
notes: as for B1
B4: Antibody 3B5 (antibody, V domains shown)
VH: EVQLQQSGPELVKPGASLKISCKASGYTFTDYNMHWVKQSHGKSLEWIGSIYPYNGDTDYNQKFKSKATLTIDNSSSTAFMDLRSLTSEDSAVYYCARENDYDGPPFPYWGLGTLVTVSA
VL: DIQMTQSSSSFSVSLGDRVTITCKASEDIYNRLAWYQQKSGNAPRLLISGATSLETGVPSRFSGSGSGKDYTLSITSLQTEDVATYYCQQYWSIRTFGGGTKLEIK
notes: as for B1
B5: Antibody 3C12 (antibody, V domains shown)
VH: QVQLKESGPGLVAPSQSLSITCTVSGFSLTSYGVHWVRQSPGKGLEWLGVIWAGGTTNYNSALMSRLSISKDNSKSQVFLKMNSLQADDTAMYYCARGGYGHSMDYWGQGTSVTVSS
VL: DIVMTQSHKFMSTSVGDRVSITCKASQDVSNAVAWYQQKPGQSPKLLIYSASYRYTGVPDRFTGSGSGTDFIFTISSVQAEDLAVYYCQQHYSTPFTFGSGTKLEIK
notes: as for B1
B6: Antibody 6H8 (antibody, V domains shown)
VH: QIQLVQSGPELKKPGETVRISCKASGYTFTNYGMNWVKQAPGKGLKWMGWINTYTGEPTYADDFRGRFALSLEPSASTASLQINNLKNEDTATYFCARYYDYDYFDYWGQGTTLTVSS
VL: DIVMTQSPSSLRVSAGEKVTMSCKSSQSLLNGGNQKNYLAWYQQKPGQPPKVLIYGASTRVSGVPDRFTGRGSGIDFTLTISSVEAEDLAVYYCQNDLSYPLTFGAGTKLELK
notes: as for B1
B7: Antibody 2C1 (antibody, V domains shown)
VH: EVKLVEPGGGLVQPGGSLRLSCATSGFTFSDFYMGWVRQPPGKRLEWIAASGNKAHDYATEYSASVKGRFFVSRDTFQSILYLQMNALRAEDTAIYYCARSYYYGSSAWFTYWGQGTLVTVSV
VL: DIVMTQSHKFMSTSIRDRVTIACKASQDVGTAVAWYQQKPGQSPKLLIFWASTRHAGVPDRFTGSGSGTDFTLTISNVQSEDLTDYFCQQYSSYPLTFGAGTKLELK
notes: as for B1
B8: Antibody h#2B1 (antibody, V domains shown)
VH: EVQLVESGGGLVQPGGSLRLSCAVSGYSITSGYYWNWIRQAPGKGLEWVAYISYDGNNNYNPSLKNRFTISRDASKNTVYLQMNSLRAEDTAVYYCAREESTMITTAWFAYWGQGTLVTVSS
VL: DIQMTQSPSSLSASVGDRVTITCRASENIYSNLAWYQQKPGKAPKLLIYGATNLASGVPSRFSGSGSGTDYTLTISSLQPEDFATYYCQHFWDTPYTFGQGTKVEIK
notes: Humanized variant of 11B12
B9: Antibody h#2E2 (antibody, V domains shown)
VH: B8 VH with A74T
VL: B8 VL
notes: Humanized variant of 11B12
B10: Antibody h#2D2 (antibody, V domains shown)
VH: B8 VH with V79F
VL: B8 VL
notes: Humanized variant of 11B12

Where a chain is given by its changes, count along the chain named.

Chain of LILRB2 antigen of the ELISA of Table 5 (format not specified) (Q8N423 22-460 limits assumed): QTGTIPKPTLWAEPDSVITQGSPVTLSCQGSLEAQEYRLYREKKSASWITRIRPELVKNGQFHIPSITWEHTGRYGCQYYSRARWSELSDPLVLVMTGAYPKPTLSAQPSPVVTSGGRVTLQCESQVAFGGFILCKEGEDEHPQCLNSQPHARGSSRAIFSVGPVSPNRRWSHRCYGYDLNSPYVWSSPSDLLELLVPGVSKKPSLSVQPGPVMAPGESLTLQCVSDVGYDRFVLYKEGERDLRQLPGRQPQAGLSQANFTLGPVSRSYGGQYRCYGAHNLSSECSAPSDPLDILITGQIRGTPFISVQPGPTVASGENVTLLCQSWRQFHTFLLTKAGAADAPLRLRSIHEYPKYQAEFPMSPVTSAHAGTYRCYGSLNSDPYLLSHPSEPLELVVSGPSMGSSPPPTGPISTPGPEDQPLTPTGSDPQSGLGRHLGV
T3 sequence (Q8NHL6 24-650): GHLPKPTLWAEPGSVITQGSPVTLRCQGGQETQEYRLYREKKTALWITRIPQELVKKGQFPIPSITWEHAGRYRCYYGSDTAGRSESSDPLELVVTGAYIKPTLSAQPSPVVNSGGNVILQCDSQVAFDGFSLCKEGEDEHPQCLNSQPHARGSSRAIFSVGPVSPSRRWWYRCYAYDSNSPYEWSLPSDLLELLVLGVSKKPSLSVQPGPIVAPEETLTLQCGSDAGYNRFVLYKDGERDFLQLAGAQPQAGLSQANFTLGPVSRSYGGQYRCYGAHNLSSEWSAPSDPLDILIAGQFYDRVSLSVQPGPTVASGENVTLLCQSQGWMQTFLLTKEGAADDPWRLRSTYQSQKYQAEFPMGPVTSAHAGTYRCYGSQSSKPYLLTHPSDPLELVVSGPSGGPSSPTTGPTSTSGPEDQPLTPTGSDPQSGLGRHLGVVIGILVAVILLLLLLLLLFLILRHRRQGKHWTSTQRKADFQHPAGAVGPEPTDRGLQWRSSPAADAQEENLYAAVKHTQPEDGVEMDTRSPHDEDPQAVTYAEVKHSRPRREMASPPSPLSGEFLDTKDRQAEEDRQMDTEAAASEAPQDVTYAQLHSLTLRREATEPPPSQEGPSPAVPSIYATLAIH
T5 sequence (chain, as listed by the source limits assumed): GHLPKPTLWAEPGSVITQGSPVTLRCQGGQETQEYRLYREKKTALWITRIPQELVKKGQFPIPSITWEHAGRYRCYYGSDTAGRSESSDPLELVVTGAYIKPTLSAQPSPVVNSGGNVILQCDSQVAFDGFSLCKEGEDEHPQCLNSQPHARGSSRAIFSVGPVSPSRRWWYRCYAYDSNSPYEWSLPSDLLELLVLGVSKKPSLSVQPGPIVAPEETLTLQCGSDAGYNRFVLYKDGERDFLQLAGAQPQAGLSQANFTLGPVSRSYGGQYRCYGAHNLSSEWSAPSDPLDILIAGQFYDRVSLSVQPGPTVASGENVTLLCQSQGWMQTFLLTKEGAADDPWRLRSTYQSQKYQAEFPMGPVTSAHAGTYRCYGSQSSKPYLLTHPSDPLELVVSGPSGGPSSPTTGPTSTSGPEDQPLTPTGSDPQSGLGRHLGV

In the first assay the target is T1, His-tagged human LILRB2 polypeptide (human, UniProt Q8N423 22-460).
T1 construct: SPR analyte; also called His-tagged human LILBR2 polypeptide; not shown: His tag
T1 sequence (Q8N423 22-460 limits assumed): as the sequence (Q8N423 22-460 limits assumed) above
In words: SPR, antibody on CM5 chip, His-LILRB2 analyte, 1:1 model. On the procedure:
Surface plasmon resonance (SPR) was used to examine binding activities of exemplary anti-LILBR2 antibodies disclosed herein. Briefly, the anti-LILBR2 antibody was diluted in a coating buffer to a concentration of 30 μg/ml, loaded onto CM5 chips at 10 μl/min to allow coating of the antibody on the surface of the CM5 chip. […] Binding affinity was measured based on the 1:1 binding model.
For orientation: Surface plasmon resonance follows binding to a sensor surface in real time, without labels.
In general, Kd refers to a measure of binding affinity in units of concentration. The term koff denotes the first-order rate constant of dissociation. Read a high koff as a short-lived complex. One may read the kon as a measure of how fast the partners come together. Regarding B1, the affinity, expressed as Kd, was 5.45 nM; the koff was 0.00137 s⁻¹; the kon came to 251000 M⁻¹ s⁻¹.
Taken in the same sequence, the figures for B2 were 0.792 nM, 0.000209 s⁻¹ and 263000 M⁻¹ s⁻¹.
Taken in the same sequence, the figures for B3 were 0.185 nM, 0.000174 s⁻¹ and 940000 M⁻¹ s⁻¹.

The next assay concerns the target T2, human LILRB3 expressed on 293T cells (human, UniProt O75022 24-631).
T2 construct: whole, on cells
As to the kind of experiment: flow cytometry on 293T transfectants, MFI. On the procedure:
(§1) The cells were then immobilized with glutaraldehyde in the presence of 5% defatted milk at room temperature for 2 hours. An anti-LILRB2 antibody (5 μg/ml) was added to each well and incubated at room temperature for 1 hours. An Alex Flour®-labelled goat anti-mouse secondary antibody (1:2,000 dilution) was then added into each well and incubated at room temperature for 30′. The cells were washed twice with PBS after the staining. Fluorescence intensities (MFI) were measured.
(In flow cytometry, cells or beads pass a laser one at a time.)
On to B3, for which the binding result is reported as “no binding (tested: 5 µg/ml)”.
Still for that read-out and setting: under B4 stands “no binding (tested: 5 µg/ml)”.

The next assay addresses T3, human LILRB1 expressed on 293T cells (human, UniProt Q8NHL6 24-650).
T3 construct: whole, on cells
As to the kind of experiment: flow cytometry on 293T transfectants, MFI. On the procedure:
as §1
Consider B3, for which the binding result is “no binding (tested: 5 µg/ml)”.
For B4, the binding result is given as “no binding (tested: 5 µg/ml)”.

The next assay deals with T2, human LILRB3 expressed on 293T cells. As to the kind of experiment: cell ELISA on fixed 293T transfectants, OD490. On the procedure: (§2) The cells were then immobilized with glutaraldehyde in the presence of 5% defatted milk at room temperature for 2 hours. An anti-LILRB2 antibody (2 μg/ml) was added to each well and incubated at room temperature for 2 hours. An HRP-labelled goat anti-mouse secondary antibody was then added into each well and incubated at room temperature for one hour. An HRP substrate, o-phenylenediamine dihydrochloride (OPD) was then added to each well. The plate was incubated at room temperature for 15 min to allow color development and OD₄₉₀ values were determined.
For orientation: ELISA stands for enzyme-linked immunosorbent assay.
In the case of B2, the binding result is listed as “no binding (tested: 2 µg/ml)”.
In the case of B5, the binding result is “no binding (tested: 2 µg/ml)”.
Consider B6, for which the binding result is “no binding (tested: 2 µg/ml)”.
Turning to B7, the binding result was “no binding (tested: 2 µg/ml)”.

In the next assay the target is T3, human LILRB1 expressed on 293T cells. In words: cell ELISA on fixed 293T transfectants, OD490. On the procedure: as §2
For B1, the binding result was “no binding (tested: 2 µg/ml)”.
For the molecule B2, the binding result is “no binding (tested: 2 µg/ml)”.
For B5, the binding result is on record as “no binding (tested: 2 µg/ml)”.
The same measure, in the same setting: to B6 belongs “no binding (tested: 2 µg/ml)”; to B7, “no binding (tested: 2 µg/ml)”.

In the next assay the target is T4, human LILRB2 expressed on cells (293T-LILRB2, CHO-K1-LILRB2) (human, UniProt Q8N423 22-597).
T4 construct: whole, on cells; the cell line is named under assay; also called HEK293T-LILRB2
T4 sequence (Q8N423 22-597): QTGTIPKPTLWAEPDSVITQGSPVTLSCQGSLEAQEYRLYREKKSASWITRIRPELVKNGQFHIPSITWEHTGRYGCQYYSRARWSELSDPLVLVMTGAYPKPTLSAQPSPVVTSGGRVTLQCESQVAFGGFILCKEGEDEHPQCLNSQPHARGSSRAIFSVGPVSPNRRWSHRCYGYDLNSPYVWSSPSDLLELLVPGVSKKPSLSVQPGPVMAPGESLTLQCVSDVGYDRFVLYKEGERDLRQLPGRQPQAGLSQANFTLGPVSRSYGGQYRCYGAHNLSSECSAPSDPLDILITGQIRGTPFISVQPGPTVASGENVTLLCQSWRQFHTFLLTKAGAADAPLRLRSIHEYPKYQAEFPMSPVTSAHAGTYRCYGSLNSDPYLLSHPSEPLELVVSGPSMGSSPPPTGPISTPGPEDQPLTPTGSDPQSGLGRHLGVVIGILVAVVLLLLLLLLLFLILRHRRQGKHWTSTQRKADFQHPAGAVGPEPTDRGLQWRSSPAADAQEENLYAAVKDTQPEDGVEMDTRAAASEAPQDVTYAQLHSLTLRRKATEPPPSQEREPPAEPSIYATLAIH
In words: flow cytometry, blockade of His-tagged HLA-G tetramer binding to 293T-LILRB2 cells; fit table under the graph, row headed EC50. On the procedure:
(§3) Serial diluted humanized LILRB2 antibodies were then added to the mixture and incubated at room temperature for another 45 minutes. The binding of HLA-G/LILRB2 was detected afterwards using a secondary PE-labeled anti-His tag antibody via flow cytometry.
One may read the EC50 as the concentration giving half of the maximal effect. A low value points to an effect from little substance. Regarding B8, the response was half-maximal at 0.219 nM (EC50).
With B9, the EC50 is 0.389 nM.
B10 registered an EC50 of 0.131 nM.

The next assay has as its target T4, human LILRB2 expressed on cells …. As to the kind of experiment: flow cytometry on 293T-LILRB2 cells, serial dilution, APC anti-human IgG; fit table under the graph. From the text:
(§4) The cells were washed and then subject to flow cytometry to measure levels of fluorescent signals.
B10 gave a Bmax of 608000 RFU and a Kd of 0.362 nM.

Another assay concerns the target T5, LILRB1-His.
T5 construct: also called His-tagged LILRB1; recombinant LILRB1 protein
In words: ELISA on recombinant His-tagged protein, OD450.
Take B3: the binding result was “no binding”.
On to B5, for which the binding result was “no binding”.
Consider B4, for which the binding result is reported as “no binding”.
Same read-out and setting: to B6 belongs “no binding”.

A further assay has as its target T6, LILRB3-His.
T6 construct: also called His-tagged LILRB3; recombinant LILRB3 protein
In words: ELISA on recombinant His-tagged protein, OD450.
For B3, the binding result is “no binding”.
On to B5, for which the binding result is given as “no binding”.
As for B4, the binding result was “no binding”.
On the same count and under the same terms, under B6 stands “no binding”.

The next assay deals with T4, human LILRB2 expressed on cells …. In words: flow cytometry, blockade of His-tagged HLA-G tetramer binding to 293T-LILRB2 cells; fit table under the graph. On the procedure: as §3
For B8, the Span amounted to 8850 RFU.
As for B9, the Span was determined as 8780 RFU.
B10: the Span stood at 7640 RFU.

The target is the same in another assay. In words: flow cytometry on 293T-LILRB2 cells, serial dilution, APC anti-human IgG; fit table under the graph. This is another data set of the same source.
Source text: as §4
Turning to B8, the Bmax came to 606000 RFU and the Kd was 0.256 nM.
Taken in the same sequence, the figures for B9 were 615000 RFU and 0.317 nM.

Another assay has as its target LILRB2 antigen of the ELISA of Table 5 (format not specified) (UniProt Q8N423 22-460, limits assumed). As to the kind of experiment: ELISA, antibody titration.
As for B1, binding was put at a Kd of 0.725 nM. That is a sub-nanomolar value.
The molecule B2 yielded a Kd of 0.631 nM. This Kd and that of the molecule before are within 1.5-fold of each other.
B3 gave a Kd of 0.493 nM.
B5 showed a Kd of 5.01 nM. This Kd lies about 10-fold higher than the previous one.
Molecule B4 displayed a Kd of 2.93 nM.
B6 displayed an equilibrium dissociation constant (Kd) of 5.7 nM.

For the origin of these results see patent publication US20240109962A1 (SPARX BIOSCIENCE, published 2024).
